We go through three substances from article PMC11081511.

In this series the test system is Phloem protein 2 (PP2), 26 kDa major variant (cucumber). Nature of the series: northwestern. The following applies: Northwestern: 10 mM Tris-HCl pH 7.5, 1 mM EDTA, 100 mM NaCl, 0.02% Ficoll 400, 0.02% PVP-40, 1% BSA, 5 pmol probe, 50 ug/ml yeast tRNA, renaturation 25 C. ….

For CY1 full-length RNA, the binding signal (fold vs PEMV2) amounted to 7.5.

CY1 D-RNA: the binding signal (fold vs PEMV2) worked out at 10. PEMV2 RNA: the binding signal (reference for fold values) came out at 1.
